Assay results reported in patent US20060287236A1 (BIO RAD LABORATORIES, published 2006).

Target: T1, transferrin receptor (TfR) (human, UniProt P02786 1-760)
T1 construct: whole, on cells; also called 100 and 200 kDa proteins
Assay: immunoprecipitation of surface-biotinylated 293 cell proteins with HFE or FLAG antibodies
Procedure: Cell surface protein biotinylations. Cells (4×10⁶) were seeded into 100 mm dishes and grown overnight to 80% confluency. The plates were moved to 4° C. and gently washed four times with PBS. Suflo-NHS-LC Biotin (Pierce) was added in PBS to a final concentration of 500 g/ml and incubated on ice for 30 mins. The Biotin reagent was removed and the plates washed 4 times with PBS containing 50 mM glycine. Cells were lysed in 500 ml of 25 mM Tris-HCL, pH 7.5 150 mM NaCl plus 0.5% NP-40. […] Precipitated proteins were separated on 4-20% Tris-glycine polyacrylamide gels (Novex), electroblotted to PVDF membranes (Novex) and biotinylated proteins were visualized with 2 μg/ml of streptavidin-HRP (Pierce) followed by ECL detection reagents (Amersham).
Biotinylated proteins were detected with streptavidin-conjugated horseradish peroxidase (HRP).

T1 sequence (P02786 whole entry): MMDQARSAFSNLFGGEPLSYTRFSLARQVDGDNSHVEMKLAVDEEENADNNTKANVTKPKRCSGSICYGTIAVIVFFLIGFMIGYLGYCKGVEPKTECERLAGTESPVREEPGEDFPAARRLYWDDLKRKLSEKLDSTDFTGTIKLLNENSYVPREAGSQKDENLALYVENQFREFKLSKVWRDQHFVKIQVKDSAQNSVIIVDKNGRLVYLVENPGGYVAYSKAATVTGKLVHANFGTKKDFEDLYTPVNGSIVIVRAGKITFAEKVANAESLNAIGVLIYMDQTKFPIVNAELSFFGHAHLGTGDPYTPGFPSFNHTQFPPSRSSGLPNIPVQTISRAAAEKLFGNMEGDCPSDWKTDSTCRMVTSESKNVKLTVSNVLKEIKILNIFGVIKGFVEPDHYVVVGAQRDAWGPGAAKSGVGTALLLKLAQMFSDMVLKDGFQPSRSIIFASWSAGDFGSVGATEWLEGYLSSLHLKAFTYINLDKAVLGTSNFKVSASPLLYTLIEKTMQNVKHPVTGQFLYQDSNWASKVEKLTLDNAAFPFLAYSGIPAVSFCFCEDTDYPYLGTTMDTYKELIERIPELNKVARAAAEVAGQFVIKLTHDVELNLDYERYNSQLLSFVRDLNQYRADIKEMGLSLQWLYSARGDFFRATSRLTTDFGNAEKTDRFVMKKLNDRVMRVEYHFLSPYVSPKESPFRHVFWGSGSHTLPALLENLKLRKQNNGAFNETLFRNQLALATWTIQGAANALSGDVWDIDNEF

B1: C282Y HFE mutant over-expressed in 293 cells (other, UniProt Q30201 23-348, looked up)
MHC heavy: RLLRSHSLHYLFMGASEQDLGLSLFEALGYVDDQLFVFYDHESRRVEPRTPWVSSRISSQMWLQLSQSLKGWDHMFTVDFWTIMENHNHSKESHTLQVILGCEMQEDNSTEGYWKYGYDGQDHLEFCPDTLDWRAAEPRAWPTKLEWERHKIRARQNRAYLERDCPAQLQQLLELGRGVLDQQVPPLVKVTHHVTSSVTTLRCRALNYYPQNITMKWLKDKQPMDAKEFEPKDVLPNGDGTYQGWITLAVPPGEEQRYTYQVEHPGLDQPLIVIWEPSPSGTLVIGVISGIAVFVVILFIGILFIILRKRQGSRGAMGHYVLAERE
notes: also called C282Y mutant
**Q.** Does B1 bind?
**A.** Result: no binding
